This note sets out measurements from patent publication US20100317830A1, “BACE455, AN ALTERNATIVE SPLICE VARIANT OF THE HUMAN BETA-SECRETASE” (EXONHIT THERAPEUTICS SA, priority 2003, published 2010).

Assay [1] deals with endogenously expressed APP in SH-SY5Y cells. The experiment in a line: Aβ1-40 double antibody sandwich ELISA on conditioned medium of transfected SH-SY5Y cells. It counts as cell-based, human. The following applies: SH-SY5Y cells transfected with BACE construct; control = empty vector, set as 100%. Here is the method:
Cells were harvested 3 days after plating and processed for Western Blotting experiments as described above.
Cell culture supernatants harvested 72 hours after plating were analyzed in a standard double antibody isoform-specific Aβ1-40 ELISA (BioSource International) as follows. […] The detecting antibody is specific for Abeta 1-40 and the conjugated secondary antibody is an anti-rabbit IgG conjugated to horseradish peroxydase. Synthetic human Aβ1-40 standard peptides are serially diluted in the supplied sample diluent for the generation of standard curves.
Human Abeta 1-40 standards were added after washing the plate, as well as 100 μl/well of sample, e.g., conditioned medium of transfected cells. The plate was incubated at 4[deg.] C. overnight. The next day, after washing the plate four times, 100 μl/well rabbit detection antibody was added and incubated for 2 hours on an orbital plate shaker at 20 degree C. […] 100 μl/well stop solution was added and absorbance of each well was read at 450 nm within two hours, with a solution of 100 μl each of chromogen and stop solution as the blank. […] The samples with absorbance values falling within the standard curve were extrapolated (by comparison to the values obtained for the A-β40 and A-β42 standard peptides analyzed on the same plate) from the standard curves and expressed in pg/ml culture medium.

The subject of assay [2] is endogenously expressed APP isoforms in SH-SY5Y cells. The experiment in a line: Western blot of C99 fragment generation in transfected SH-SY5Y cells. It counts as cell-based, human. The procedure:
SH-SY5Y cells for transfection were grown to 80% confluence in Dulbecco's modified Eagle's medium (DMEM) with 10% fetal bovine serum. Transfections were performed using LipofectAmine Plus (Gibco-BRL) with […] per 10*10<6>cells. Three days posttransfection, cells were passaged into medium containing G418 at a concentration of 400 μg/ml. After twenty days growth in selective medium, individual clones were selected and plated into each well of one 96 well plate containing growth medium plus G418. Clones were expanded from the 96 well plate to a 24 well plate and then to a 6 well plate. Clones which had lost initial neuronal-like morphology were not amplified. BACE455 or BACE501 expression in selected clones was assayed by Western Blotting and immunohistochemical analysis using Cterminal-specific antibody.
Cells were harvested 3 days after plating. Cells were washed twice with PBS and lysed in 1 ml CellLytic solution (Sigma) plus protease inhibitors cocktail (Roche Diagnostics) for 15 min. […] Following electrotransfer of the separated polypeptides to PVDF membranes, APP and C99 proteolytic fragment were detected with C-terminal-specific rabbit anti-APP antibody (Serotec, UK) at 1/500 in PBS-Tween 20 0.1%, and the antibody-antigen complexes were visualized using alkaline phosphatase conjugated goat anti-rabbit antibodies (1/5000). […]

B1: BACE501: native full-length human BACE isoform (variant a), NM_012104 (protein, UniProt P56817 1-501, looked up)
chain: MAQALPWLLLWMGAGVLPAHGTQHGIRLPLRSGLGGAPLGLRLPRETDEEPEEPGRRGSFVEMVDNLRGKSGQGYYVEMTVGSPPQTLNILVDTGSSNFAVGAAPHPFLHRYYQRQLSSTYRDLRKGVYVPYTQGKWEGELGTDLVSIPHGPNVTVRANIAAITESDKFFINGSNWEGILGLAYAEIARPDDSLEPFFDSLVKQTHVPNLFSLQLCGAGFPLNQSEVLASVGGSMIIGGIDHSLYTGSLWYTPIRREWYYEVIIVRVEINGQDLKMDCKEYNYDKSIVDSGTTNLRLPKKVFEAAVKSIKAASSTEKFPDGFWLGEQLVCWQAGTTPWNIFPVISLYLMGEVTNQSFRITILPQQYLRPVEDVATSQDDCYKFAISQSSTGTVMGAVIMEGFYVVFDRARKRIGFAVSACHVHDEFRTAAVEGPFVTLDMEDCGYNIPQTDESTLMTIAYVMAAICALFMLPLCLMVCQWRCLRCLRQQHDDFADDISLLK
modifications: full-length
notes: native full-length human BACE isoform (variant a), NM_012104
B1: the “Aβ release (% of control)” value in assay [1] was 193.15 ± 2.73 % of control.

B2: BACE455: new isoform of human beta-secretase (BACE) lacking exon 4, 455 amino acid residues, SEQ ID NO: 2 (protein, listed as Homo sapiens)
chain: MAQALPWLLLWMGAGVLPAHGTQHGIRLPLRSGLGGAPLGLRLPRETDEEPEEPGRRGSFVEMVDNLRGKSGQGYYVEMTVGSPPQTLNILVDTGSSNFAVGAAPHPFLHRYYQRQLSSTYRDLRKGVYVPYTQGKWEGELGTDLVSIPHGPNVTVRANIAAITESDKFFINGSNWEGILGLAYAEIARIIGGIDHSLYTGSLWYTPIRREWYYEVIIVRVEINGQDLKMDCKEYNYDKSIVDSGTTNLRLPKKVFEAAVKSIKAASSTEKFPDGFWLGEQLVCWQAGTTPWNIFPVISLYLMGEVTNQSFRITILPQQYLRPVEDVATSQDDCYKFAISQSSTGTVMGAVIMEGFYVVFDRARKRIGFAVSACHVHDEFRTAAVEGPFVTLDMEDCGYNIPQTDESTLMTIAYVMAAICALFMLPLCLMVCQWRCLRCLRQQHDDFADDISLLK
With B2, in assay [2] (SH-SY5Y cells transformed with the BACE455 construct vs empty vector), the C99 production result was “strongly increased”. Further, in assay [2] (overexpression of BACE455 in SH-SY5Y cells), the APP levels entry is reported as “no influence”. For the same molecule, the “Aβ release (% of control)” value in assay [1] is reported as 199.95+18 % of control.
